Target: EBOV GP, soluble form of the full-length extracellular domain (Zaire ebolavirus, strain  …, UniProt Q05320)
Assay: ELISA

EBOV GP, soluble form of the full-length extracellular domain, sequence (Q05320 33-650): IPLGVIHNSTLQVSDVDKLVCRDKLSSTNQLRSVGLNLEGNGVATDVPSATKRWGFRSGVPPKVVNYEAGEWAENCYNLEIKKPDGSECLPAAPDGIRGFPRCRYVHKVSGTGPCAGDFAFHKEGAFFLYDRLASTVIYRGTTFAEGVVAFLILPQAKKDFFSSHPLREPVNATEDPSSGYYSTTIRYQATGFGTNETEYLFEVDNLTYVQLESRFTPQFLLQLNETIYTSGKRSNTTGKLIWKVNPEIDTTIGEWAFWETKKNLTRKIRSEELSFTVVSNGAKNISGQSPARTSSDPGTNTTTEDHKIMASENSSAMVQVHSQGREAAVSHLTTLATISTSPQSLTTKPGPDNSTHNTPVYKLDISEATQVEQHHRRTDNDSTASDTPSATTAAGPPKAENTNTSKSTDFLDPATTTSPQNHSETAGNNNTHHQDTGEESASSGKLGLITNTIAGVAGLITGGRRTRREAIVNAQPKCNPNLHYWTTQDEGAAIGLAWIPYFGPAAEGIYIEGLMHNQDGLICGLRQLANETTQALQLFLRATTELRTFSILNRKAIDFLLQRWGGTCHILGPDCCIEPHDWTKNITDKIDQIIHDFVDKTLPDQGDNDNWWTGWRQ

B1: BDBV289, human mAb (antibody, V domains shown)
VH: QVQLVQSGAEVKKPGSSVKVSCKASGATFGSDTVTWVRQAPGQGLEWMGGIIPFFGEANYAQRFQGRVTITADKSTNTAYMELSSLRSEDTAVYFCARQINEMATFGEIHYYTYMDVWGQGTLVTVSS
VL: GSELTQDPAVSVALGQTVRITCQGDSLRNYYASWYQQKPRQAPVLVFYGKNNRPSGIPDRFSGSSSGNTASLTISGAQAEDEADYYCNSRDSSSNHLVFGGGTKLTVL
binding result: binds

— article PMC4733404 (Cell, 2016)
